According to article PMC10295924:

Target: SFB-β-catenin (UniProt P35222)
Assay: pull-down; HEK293T cells co-transfected with MYC-LEF1, SFB-β-catenin and OTUD7B-V5 or GFP-V5, treated with 20 mM lithium chloride for 24 h; cytoplasmic and nuclear lysates pulled down with S-protein beads; immunoblot, bands quantified with ImageJ

Chain of UniProt P35222 (P35222 whole entry): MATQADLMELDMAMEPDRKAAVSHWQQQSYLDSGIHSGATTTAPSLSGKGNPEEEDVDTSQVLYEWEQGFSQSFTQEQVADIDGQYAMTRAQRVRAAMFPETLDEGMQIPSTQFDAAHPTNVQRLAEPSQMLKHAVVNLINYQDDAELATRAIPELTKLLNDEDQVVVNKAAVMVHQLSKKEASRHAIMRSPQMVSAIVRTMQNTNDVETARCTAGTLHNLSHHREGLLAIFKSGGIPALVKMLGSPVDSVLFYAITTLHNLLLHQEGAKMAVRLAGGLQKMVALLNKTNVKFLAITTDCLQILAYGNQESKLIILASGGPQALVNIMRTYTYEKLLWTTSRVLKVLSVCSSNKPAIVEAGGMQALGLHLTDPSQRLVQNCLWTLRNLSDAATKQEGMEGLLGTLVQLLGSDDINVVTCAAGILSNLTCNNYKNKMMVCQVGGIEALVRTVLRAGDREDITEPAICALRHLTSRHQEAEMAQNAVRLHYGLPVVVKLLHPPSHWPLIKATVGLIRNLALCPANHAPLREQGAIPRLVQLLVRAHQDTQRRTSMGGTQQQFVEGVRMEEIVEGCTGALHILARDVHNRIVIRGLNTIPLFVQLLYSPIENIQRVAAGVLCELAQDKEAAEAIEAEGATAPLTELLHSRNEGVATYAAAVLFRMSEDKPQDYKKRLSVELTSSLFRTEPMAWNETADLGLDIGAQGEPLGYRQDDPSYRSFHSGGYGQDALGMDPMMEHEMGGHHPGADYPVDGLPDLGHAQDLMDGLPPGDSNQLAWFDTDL

MYC-LEF1 (Lymphoid enhancer-binding factor 1), full length (natural protein)
fold increase of β-catenin-bound LEF1 in the nucleus with OTUD7B-V5 against GFP-V5: 4.82 fold
